Test [1] deals with T1, recombinant BACE1 (BACE1 extracellular domain, R&D Systems Cat#931-AS) (UniProt P56817 22-457).
T1 construct: extracellular domain; also called BACE1 extracellular domain protein
The test can be described thus: SPR Biacore 8K, antibody captured, BACE1 analyte. How it is done: The binding affinities of the affinity matured humanized 2H8 variants for BACE1 were determined by surface plasmon resonance using a Biacore™ 8K instrument. […] The binding was monitored for 300 seconds and then dissociation was monitored for 600+ seconds in HBS-EP+ running buffer (GE Healthcare Life Sciences, BR100669). Binding response was corrected by subtracting the RU from a blank flow cell. A 1:1 Langmuir model of simultaneous fitting of kₒₙ and koff was used for kinetics analysis.

Test [2] addresses T1, recombinant BACE1 (BACE1 extracellular …). The test can be described thus: SPR Biacore T200, IgG captured, BACE1 analyte. How it is done: The affinity of chimeric IgG antibodies for recombinant BACE1 was determined by surface plasmon resonance using a Biacore™ T200 instrument. Biacore™ Series S CMS sensor chips were immobilized with monoclonal mouse anti-human IgG (Fc) antibody (e.g., using a human antibody capture kit from GE Healthcare). 1 μg/mL of antibody was captured for 1 minute on each flow cell and serial 3-fold dilutions of recombinant BACE1 were injected at a flow rate of 30 μL/min. Each sample was analyzed with a 3-minute association and a 10-minute dissociation. After each injection, the chip was regenerated using 3M MgCl₂. Binding response was corrected by subtracting the RU from a flow cell capturing an irrelevant IgG at similar density. A 1:1 Langmuir model of simultaneous fitting of kₒₙ and koff was used for analysis of kinetics.

Test [3] has as its target cellular BACE1 in CHOK1-huAPP cells. The test can be described thus: cell-based or functional assay.

T1 sequence (P56817 22-457): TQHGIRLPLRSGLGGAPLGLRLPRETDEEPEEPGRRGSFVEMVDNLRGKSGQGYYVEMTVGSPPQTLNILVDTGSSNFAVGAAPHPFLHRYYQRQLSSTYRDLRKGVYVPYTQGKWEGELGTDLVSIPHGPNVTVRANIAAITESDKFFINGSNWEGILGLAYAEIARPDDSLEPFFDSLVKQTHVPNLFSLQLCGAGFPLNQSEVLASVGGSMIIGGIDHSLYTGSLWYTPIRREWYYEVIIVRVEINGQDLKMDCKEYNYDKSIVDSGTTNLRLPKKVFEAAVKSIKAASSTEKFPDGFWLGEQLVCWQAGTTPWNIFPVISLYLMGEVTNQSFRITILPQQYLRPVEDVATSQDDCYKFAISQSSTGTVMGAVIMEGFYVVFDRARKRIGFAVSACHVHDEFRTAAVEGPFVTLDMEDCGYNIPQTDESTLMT

B1: hu2H8v29.17 (antibody, V domains shown)
VH: QVQLVQSGAEVKKPGASVKVSCKASGYTFTNFWIHWVRQAPGQGLEWMGMIDPSSSYTKYNQKFKARATLTVDTSTSTVYMELSSLRSEDTAVYYCARSGVAFPYWGQGTLVTVSS
VL: DIQMTQSPSSLSASVGDRVTITCKASQDVGRNVAWYQQKPGKSPKSLIYSASHRYSGVPSRFSGSGSGTDFTLTISSLQPEDFATYFCQQYNSYPYTFGQGTKVEIK
notes: captured via human Fc; also called hu2H8_LC5 + hu2H8_HC6.6
Take B1: the dissociation constant (Kd) in test [1] is 8.04 nM.

B2: hu2H8v29.18 (antibody, V domains shown)
VH: QVQLVQSGAEVKKPGASVKVSCKASGYTFTNFWIHWVRQAPGQGLEWMGMIDPSESYTKYNQKFKARATLTVDTSTSTVYMELSSLRSEDTAVYYCARSGVAFPYWGQGTLVTVSS
VL: DIQMTQSPSSLSASVGDRVTITCKASQDVGRNVAWYQQKPGKSPKSLIYSASHRYSGVPSRFSGSGSGTDFTLTISSLQPEDFATYFCQQYNSYPYTFGQGTKVEIK
notes: captured via human Fc; also called hu2H8_LC5 + hu2H8_HC6.7
Consider B2, for which the equilibrium dissociation constant (Kd) in test [1] came to 10.3 nM.

B3: hu2H8v29.24 (antibody, V domains shown)
VH: QVQLVQSGAEVKKPGASVKVSCKASGYTFTNFWIHWVRQAPGQGLEWMGMIDPSDSYTKYNQKFKARATLTVDTSTSTVYMELSSLRSEDTAVYYCARSGASLPYWGQGTLVTVSS
VL: DIQMTQSPSSLSASVGDRVTITCKASQDVGRNVAWYQQKPGKSPKSLIYSASHRYSGVPSRFSGSGSGTDFTLTISSLQPEDFATYFCQQYNSYPYTFGQGTKVEIK
notes: captured via human Fc; also called hu2H8_LC5 + hu2H8_HC6.13
On to B3, for which, in test [1], the Kd was 5.73 nM.

B4: hu2H8v29.27 (antibody, V domains shown)
VH: QVQLVQSGAEVKKPGASVKVSCKASGYTFTNFWIHWVRQAPGQGLEWMGMIDPSSSYTKYNQKFKARATLTVDTSTSTVYMELSSLRSEDTAVYYCARSGASLPYWGQGTLVTVSS
VL: DIQMTQSPSSLSASVGDRVTITCKASQDVGRNVAWYQQKPGKSPKSLIYSASHYYSGVPSRFSGSGSGTDFTLTISSLQPEDFATYFCQQYYSYPYTFGQGTKVEIK
notes: captured via human Fc; also called hu2H8_LC5.12 + hu2H8_HC6.16
With B4, the dissociation constant Kd in test [1] worked out at 3.4 nM.

B5: hu2H8v29.22 (antibody, V domains shown)
VH: QVQLVQSGAEVKKPGASVKVSCKASGYTFTNFWIHWVRQAPGQGLEWMGMIDPSDSYTKYNQKFKARATLTVDTSTSTVYMELSSLRSEDTAVYYCARSGVALPSWGQGTLVTVSS
VL: DIQMTQSPSSLSASVGDRVTITCKASQDVGRNVAWYQQKPGKSPKSLIYSASHRYSGVPSRFSGSGSGTDFTLTISSLQPEDFATYFCQQYNSYPYTFGQGTKVEIK
notes: captured via human Fc; also called hu2H8_LC5 + hu2H8_HC6.11
As for B5, the Kd in test [1] was 6 nM.

B6: hu2H8v29.20 (antibody, V domains shown)
VH: QVQLVQSGAEVKKPGASVKVSCKASGYTFTNFWIHWVRQAPGQGLEWMGMIDPSDAYTKYNQKFKARATLTVDTSTSTVYMELSSLRSEDTAVYYCARSGVAFPYWGQGTLVTVSS
VL: DIQMTQSPSSLSASVGDRVTITCKASQDVGRNVAWYQQKPGKSPKSLIYSASHRYSGVPSRFSGSGSGTDFTLTISSLQPEDFATYFCQQYNSYPYTFGQGTKVEIK
notes: captured via human Fc; also called hu2H8_LC5 + hu2H8_HC6.9
As to B6, in test [1], the Kd was found to be 8.69 nM.

B7: hu2H8v29.23 (antibody, V domains shown)
VH: QVQLVQSGAEVKKPGASVKVSCKASGYTFTNFWIHWVRQAPGQGLEWMGMIDPSDSYTKYNQKFKARATLTVDTSTSTVYMELSSLRSEDTAVYYCARSGVSLPYWGQGTLVTVSS
VL: DIQMTQSPSSLSASVGDRVTITCKASQDVGRNVAWYQQKPGKSPKSLIYSASHRYSGVPSRFSGSGSGTDFTLTISSLQPEDFATYFCQQYNSYPYTFGQGTKVEIK
notes: captured via human Fc; also called hu2H8_LC5 + hu2H8_HC6.12
Turning to B7, in test [1], the Kd came to 7 nM.

B8: hu2H8v29.26 (antibody, V domains shown)
VH: QVQLVQSGAEVKKPGASVKVSCKASGYTFTNFWIHWVRQAPGQGLEWMGMIDPSDSYTKYNQKFKARATLTVDTSTSTVYMELSSLRSEDTAVYYCARSGGALPYWGQGTLVTVSS
VL: DIQMTQSPSSLSASVGDRVTITCKASQDVGRNVAWYQQKPGKSPKSLIYSASHRYSGVPSRFSGSGSGTDFTLTISSLQPEDFATYFCQQYNSYPYTFGQGTKVEIK
notes: captured via human Fc; also called hu2H8_LC5 + hu2H8_HC6.15
B8: the Kd in test [1] worked out at 8.52 nM.

B9: hu2H8v29.25 (antibody, V domains shown)
VH: QVQLVQSGAEVKKPGASVKVSCKASGYTFTNFWIHWVRQAPGQGLEWMGMIDPSDSYTKYNQKFKARATLTVDTSTSTVYMELSSLRSEDTAVYYCARSGAALPYWGQGTLVTVSS
VL: DIQMTQSPSSLSASVGDRVTITCKASQDVGRNVAWYQQKPGKSPKSLIYSASHRYSGVPSRFSGSGSGTDFTLTISSLQPEDFATYFCQQYNSYPYTFGQGTKVEIK
notes: captured via human Fc; also called hu2H8_LC5 + hu2H8_HC6.14
As for B9, in test [1], the equilibrium dissociation constant (Kd) came out at 6.08 nM.

B10: hu2H8v29.21 (antibody, V domains shown)
VH: QVQLVQSGAEVKKPGASVKVSCKASGYTFTNFWIHWVRQAPGQGLEWMGMIDPSDSYTKYNQKFKARATLTVDTSTSTVYMELSSLRSEDTAVYYCARSGVALPYWGQGTLVTVSS
VL: DIQMTQSPSSLSASVGDRVTITCKASQDVGRNVAWYQQKPGKSPKSLIYSASHRYSGVPSRFSGSGSGTDFTLTISSLQPEDFATYFCQQYNSYPYTFGQGTKVEIK
notes: captured via human Fc; also called hu2H8_LC5 + hu2H8_HC6.10
Regarding B10, the dissociation constant Kd in test [1] came out at 6.68 nM.

B11: hu2H8v29.19 (antibody, V domains shown)
VH: QVQLVQSGAEVKKPGASVKVSCKASGYTFTNFWIHWVRQAPGQGLEWMGMIDPSGSYTKYNQKFKARATLTVDTSTSTVYMELSSLRSEDTAVYYCARSGVAFPYWGQGTLVTVSS
VL: DIQMTQSPSSLSASVGDRVTITCKASQDVGRNVAWYQQKPGKSPKSLIYSASHRYSGVPSRFSGSGSGTDFTLTISSLQPEDFATYFCQQYNSYPYTFGQGTKVEIK
notes: captured via human Fc; also called hu2H8_LC5 + hu2H8_HC6.8
B11: the dissociation constant Kd in test [1] was found to be 9.95 nM.

B12: hu2H8v29.28 (antibody, V domains shown)
VH: QVQLVQSGAEVKKPGASVKVSCKASGYTFTNFWIHWVRQAPGQGLEWMGMIDPDSSYTKYNQKFKARATLTVDTSTSTVYMELSSLRSEDTAVYYCARSGASLPYWGQGTLVTVSS
VL: DIQMTQSPSSLSASVGDRVTITCKASQDVGRNVAWYQQKPGKSPKSLIYSASHYYSGVPSRFSGSGSGTDFTLTISSLQPEDFATYFCQQYYSYPYTFGQGTKVEIK
notes: captured via human Fc; also called hu2H8_LC5.12 + hu2H8_HC6.17
For B12, in test [1], the equilibrium dissociation constant (Kd) was 4.8 nM.

B13: 4H10 (antibody, human IgG1, V domains shown)
VH: EIQLQQSGPELKKPGETVKISCKTSGYTFTTYGMTWVKQAPGKGLKWMGWINTYSGVPIYADDFKGRSAFSLETSASTAYLQINNLENEDTATYFCARRGSTAHYFDYWGQGTTVTVSS
VL: DIVLTQSHKFMSTSVGDRVSITCKASQDVSTAVAWYQQKPGQSPKLLIYWASTRHTGVPDRFTGSGSGTDYTLTISSVQAEDLALYYCQQHYSTPYTFGGGTKLELK
notes: chimeric, human IgG1/kappa; also called Clone 4H10
Take B13: in test [2], the Kd came out at 23 nM, the dissociation rate constant (koff) turned out to be 0.0022 s⁻¹ and the on-rate constant (kon) was found to be 96000 M⁻¹ s⁻¹. In test [3], the “% Max Inhibition” value is 46% and the “Cellular IC50” value worked out at 18 nM.

B14: 1D2 (antibody, human IgG1, V domains shown)
VH: EVHVKQSGPELKKPGETVTISCKASGYTFTTYGMTWVRQAPGKDLEWMGWINTHSGVPIYADDFKGRFAFSLETSAGTAYLQINNLKNEDTATYFCTRRGRLGHYFDYWGQGTSVTVSS
VL: DIVMTQSQKFMSTSVGDRVSVTCKASQNVGTNVAWYQQKPGQSPKLLIYWASTRHTGVPDRFTGSGSGTDFTLTISNVQSEDLADYFCQQYSSYPYTFGGGTKLELK
notes: chimeric, human IgG1/kappa; also called Clone 1D2
Turning to B14, in test [2], the Kd is 3.1 nM, the koff is 0.00024 s⁻¹ and the kon was found to be 78000 M⁻¹ s⁻¹. In test [3], the “% Max Inhibition” value is 47% and the “Cellular IC50” value was 4 nM.

B15: 4A4 (antibody, human IgG1, V domains shown)
VH: EVKLMESGPGLVAPSQSLSITCTVSGFSLTSYPINWVRQPPGKGLEWLGVIWTGGSTNYNSALKSRLSISRDNSKSQVFLKMNSLQTDDTARYYCARWDGYFGAFDYWGQGTTVTVSS
VL: DIVMTQTTSSLSASLGDRVTISCRASQDISKYLNWYQQKPDGTVKLLIYYTSRLHSGVPSRFSGSGSGTDYSLTISNLEQEDIATYFCQQSLSLPYTFGGGTRLEIK
notes: chimeric, human IgG1/kappa; also called Clone 4A4
Regarding B15, in test [2], the dissociation constant (Kd) is 15 nM, the koff was found to be 0.0012 s⁻¹ and the on-rate constant (kon) is 83000 M⁻¹ s⁻¹. In addition, in test [3], the “% Max Inhibition” value came out at 53% and the “Cellular IC50” value stood at 17 nM.

B16: 1D7 (antibody, human IgG1, V domains shown)
VH: EVKLMESGPGLVAPSQSLSISCTVSGFSLTSYGVDWVRQPPGKGLEWLGVVWGGGSTNYNSALMSRLSISKDNSKSQVFLKMNSLQTDDTAMYYCAKRDYFGGLNVWGTGTTVTVSS
VL: DIVMTQTTSPLSVSLGDRVTISCRASQDISKYLNWYQQRPDGTVKLLIYYTSRLHSGVPSRFSGSGSGTDYSLTISNLEQEDIATYFCHQGHKIPYTFGGGTKLELK
notes: chimeric, human IgG1/kappa; also called Clone 1D7
Consider B16, for which, in test [2], the Kd was found to be 16 nM, the off-rate constant (koff) is 0.00095 s⁻¹ and the on-rate constant (kon) was determined as 59000 M⁻¹ s⁻¹. Further, in test [3], the “% Max Inhibition” value was 55% and the “Cellular IC50” value amounted to 4 nM.

B17: 3C11 (antibody, human IgG1, V domains shown)
VH: EVQLQQSGADLMKPGASVKLSCKATGYTFTGYWIEWVKQRPGHGLEWIGEIFPGSVSTNYNEKFKGKATFTADTSSNTAYMQLSSLTTEDSAIYYCARSPIYYDYADYWGQGTTLTVSS
VL: DIVLSQSHKFMSTSVGDRVSITCKASQDVGTAVAWYQQKPGQSPKALIYLASNRHTGVPDRFTGSGSGTDFTLTISNVQSEDLAEYFCQQYNSYPYTFGGGTRLEIK
notes: chimeric, human IgG1/kappa; also called Clone 3C11
For the molecule B17, in test [2], the Kd amounted to 61 nM, the koff came to 0.0013 s⁻¹ and the kon was 21000 M⁻¹ s⁻¹. In addition, in test [3], the “% Max Inhibition” value was 56% and the “Cellular IC50” value amounted to 36 nM.

For the origin of these results see US20210070881A1 (DENALI THERAPEUTICS, published 2021).
